# Assay results reported in patent US20160136234A1.
# Assays:
# Assay in all cases: cell-based or functional assay
# EGFR(T790M) (h) (human) = EGFR(T790M) (h) (human) (UniProt P00533)
# SIK (h) (human) = SIK (h) (human) (UniProt P57059)
# MuSK (h) (human) = MuSK (h) (human) (UniProt O15146)
# VRK2 (h) (human) = VRK2 (h) (human) (UniProt Q86Y07)
# Flt1 (h) (human) = target: T1, Flt1 (h) (human) (UniProt P17948)
# T1 sequence (looked up): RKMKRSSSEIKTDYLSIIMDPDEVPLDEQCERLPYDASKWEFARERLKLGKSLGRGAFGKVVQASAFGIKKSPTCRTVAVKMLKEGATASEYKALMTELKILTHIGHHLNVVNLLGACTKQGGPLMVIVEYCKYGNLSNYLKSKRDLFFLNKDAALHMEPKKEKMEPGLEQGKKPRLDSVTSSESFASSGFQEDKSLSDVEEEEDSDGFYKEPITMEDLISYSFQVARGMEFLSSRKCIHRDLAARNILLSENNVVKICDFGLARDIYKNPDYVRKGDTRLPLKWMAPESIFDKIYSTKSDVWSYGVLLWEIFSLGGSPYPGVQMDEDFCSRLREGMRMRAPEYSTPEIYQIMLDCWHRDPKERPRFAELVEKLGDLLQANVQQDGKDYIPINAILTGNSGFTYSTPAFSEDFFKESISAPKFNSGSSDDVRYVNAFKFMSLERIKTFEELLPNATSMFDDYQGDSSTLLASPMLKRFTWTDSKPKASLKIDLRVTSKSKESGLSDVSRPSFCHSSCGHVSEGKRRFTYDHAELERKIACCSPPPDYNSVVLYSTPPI
# RIPK2 (h) (human) = RIPK2 (h) (human) (UniProt O43353)
# DMPK (h) (human) = DMPK (h) (human) (UniProt Q09013)
# Tie2 (h) (human) = Tie2 (h) (human) (UniProt Q02763)
# CaMKIIβ (h) (human) = CaMKIIβ (h) (human) (UniProt Q13554)
# TSSK2 (h) (human) = target: T2, TSSK2 (h) (human) (UniProt Q96PF2)
# T2 sequence (looked up): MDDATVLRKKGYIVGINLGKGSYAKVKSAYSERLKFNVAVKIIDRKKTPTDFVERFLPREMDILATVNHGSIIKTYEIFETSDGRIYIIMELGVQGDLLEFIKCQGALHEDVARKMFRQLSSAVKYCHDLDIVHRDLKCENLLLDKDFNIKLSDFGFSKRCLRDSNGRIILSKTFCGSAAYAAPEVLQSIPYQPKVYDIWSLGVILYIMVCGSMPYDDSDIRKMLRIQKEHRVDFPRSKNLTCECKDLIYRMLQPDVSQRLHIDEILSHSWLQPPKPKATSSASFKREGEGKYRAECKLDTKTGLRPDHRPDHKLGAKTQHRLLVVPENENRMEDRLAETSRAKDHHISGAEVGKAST
# Lyn (h) (human) = Lyn (h) (human) (UniProt P07948)
# EphA1 (h) (human) = target: T3, EphA1 (h) (human) (UniProt P21709)
# T3 sequence (looked up): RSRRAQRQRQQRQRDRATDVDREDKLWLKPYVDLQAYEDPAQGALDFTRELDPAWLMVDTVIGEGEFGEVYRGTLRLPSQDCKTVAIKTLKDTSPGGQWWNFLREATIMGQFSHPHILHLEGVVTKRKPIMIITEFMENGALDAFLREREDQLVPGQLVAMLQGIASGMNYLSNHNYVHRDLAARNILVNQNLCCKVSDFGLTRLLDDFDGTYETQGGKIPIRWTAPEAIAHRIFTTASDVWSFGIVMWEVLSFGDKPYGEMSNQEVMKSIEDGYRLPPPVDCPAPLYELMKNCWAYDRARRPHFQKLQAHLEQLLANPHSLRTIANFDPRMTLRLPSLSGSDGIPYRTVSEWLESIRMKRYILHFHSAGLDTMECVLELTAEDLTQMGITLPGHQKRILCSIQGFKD
# KDR (h) (human) = KDR (h) (human) (UniProt P35968)
# IR (h) (human) = IR (h) (human) (UniProt P06213)
# PKCθ (h) (human) = PKCθ (h) (human) (UniProt Q04759)
# PASK (h) (human) = PASK (h) (human) (UniProt Q96RG2)
# GRK7 (h) (human) = target: T4, GRK7 (h) (human) (UniProt Q8WTQ7)
# T4 sequence (looked up): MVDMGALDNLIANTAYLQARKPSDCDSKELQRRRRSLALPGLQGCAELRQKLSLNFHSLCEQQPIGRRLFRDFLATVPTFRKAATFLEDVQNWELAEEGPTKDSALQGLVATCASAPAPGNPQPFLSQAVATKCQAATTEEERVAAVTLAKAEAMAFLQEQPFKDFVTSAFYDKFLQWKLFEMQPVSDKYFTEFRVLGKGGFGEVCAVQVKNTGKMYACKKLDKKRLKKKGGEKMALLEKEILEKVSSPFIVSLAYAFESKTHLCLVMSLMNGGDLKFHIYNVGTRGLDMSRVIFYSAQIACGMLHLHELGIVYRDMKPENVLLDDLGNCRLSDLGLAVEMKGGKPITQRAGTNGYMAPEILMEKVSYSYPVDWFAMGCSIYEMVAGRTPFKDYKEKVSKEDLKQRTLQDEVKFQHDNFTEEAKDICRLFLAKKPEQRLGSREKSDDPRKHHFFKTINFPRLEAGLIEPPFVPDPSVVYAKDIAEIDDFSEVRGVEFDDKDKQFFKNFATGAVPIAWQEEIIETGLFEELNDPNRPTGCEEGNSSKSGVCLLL
# cSRC (h) (human) = cSRC (h) (human) (UniProt P12931)
# SRPK1 (h) (human) = SRPK1 (h) (human) (UniProt Q96SB4)
# Abl (h) (human) = Abl (h) (human) (UniProt P00519)
# Chain of Abl (h) (human) (P00519 27-1130 limits assumed): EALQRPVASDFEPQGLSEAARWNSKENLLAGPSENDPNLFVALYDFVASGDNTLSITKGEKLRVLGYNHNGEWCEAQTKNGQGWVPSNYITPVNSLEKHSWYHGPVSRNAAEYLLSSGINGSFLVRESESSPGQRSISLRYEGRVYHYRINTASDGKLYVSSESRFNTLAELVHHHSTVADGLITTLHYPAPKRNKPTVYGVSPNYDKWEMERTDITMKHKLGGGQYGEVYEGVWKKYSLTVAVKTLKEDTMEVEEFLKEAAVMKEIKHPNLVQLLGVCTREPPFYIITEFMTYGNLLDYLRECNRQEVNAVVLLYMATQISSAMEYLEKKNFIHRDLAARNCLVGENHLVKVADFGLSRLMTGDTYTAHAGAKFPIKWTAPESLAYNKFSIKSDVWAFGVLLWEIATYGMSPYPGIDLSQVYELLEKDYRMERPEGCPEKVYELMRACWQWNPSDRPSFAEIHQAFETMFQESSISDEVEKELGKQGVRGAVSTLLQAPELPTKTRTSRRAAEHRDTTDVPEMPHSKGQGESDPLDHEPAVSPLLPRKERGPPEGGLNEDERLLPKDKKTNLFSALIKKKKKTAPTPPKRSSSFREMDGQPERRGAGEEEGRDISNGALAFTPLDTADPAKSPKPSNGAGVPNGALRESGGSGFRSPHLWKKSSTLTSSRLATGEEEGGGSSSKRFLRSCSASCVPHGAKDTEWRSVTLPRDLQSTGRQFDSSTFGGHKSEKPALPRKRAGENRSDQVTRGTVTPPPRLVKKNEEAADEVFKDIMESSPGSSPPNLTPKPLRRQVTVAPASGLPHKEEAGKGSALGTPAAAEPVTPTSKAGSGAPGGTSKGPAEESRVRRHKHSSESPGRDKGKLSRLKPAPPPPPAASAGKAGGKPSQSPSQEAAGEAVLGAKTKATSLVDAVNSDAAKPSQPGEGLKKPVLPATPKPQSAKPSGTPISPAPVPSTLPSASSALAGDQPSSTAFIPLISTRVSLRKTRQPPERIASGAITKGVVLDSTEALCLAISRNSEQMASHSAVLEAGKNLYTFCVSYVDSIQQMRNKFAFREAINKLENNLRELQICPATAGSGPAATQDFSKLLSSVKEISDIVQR
# Chain of VRK2 (h) (human) (Q86Y07 whole entry): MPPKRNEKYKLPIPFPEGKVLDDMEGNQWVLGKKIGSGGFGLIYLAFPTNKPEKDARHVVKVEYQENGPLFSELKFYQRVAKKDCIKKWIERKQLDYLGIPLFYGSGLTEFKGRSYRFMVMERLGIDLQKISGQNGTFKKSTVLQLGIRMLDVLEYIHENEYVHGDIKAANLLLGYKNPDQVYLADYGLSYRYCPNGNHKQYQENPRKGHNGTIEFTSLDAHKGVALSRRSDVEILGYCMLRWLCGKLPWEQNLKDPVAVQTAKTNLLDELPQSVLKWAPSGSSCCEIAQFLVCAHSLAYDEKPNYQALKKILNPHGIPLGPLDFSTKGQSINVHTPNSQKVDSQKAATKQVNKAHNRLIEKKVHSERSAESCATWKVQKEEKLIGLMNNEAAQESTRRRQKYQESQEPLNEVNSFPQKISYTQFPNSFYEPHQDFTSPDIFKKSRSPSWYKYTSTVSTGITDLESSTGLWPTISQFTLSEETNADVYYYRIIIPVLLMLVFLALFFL
# Chain of Tie2 (h) (human) (Q02763 771-1124 limits assumed): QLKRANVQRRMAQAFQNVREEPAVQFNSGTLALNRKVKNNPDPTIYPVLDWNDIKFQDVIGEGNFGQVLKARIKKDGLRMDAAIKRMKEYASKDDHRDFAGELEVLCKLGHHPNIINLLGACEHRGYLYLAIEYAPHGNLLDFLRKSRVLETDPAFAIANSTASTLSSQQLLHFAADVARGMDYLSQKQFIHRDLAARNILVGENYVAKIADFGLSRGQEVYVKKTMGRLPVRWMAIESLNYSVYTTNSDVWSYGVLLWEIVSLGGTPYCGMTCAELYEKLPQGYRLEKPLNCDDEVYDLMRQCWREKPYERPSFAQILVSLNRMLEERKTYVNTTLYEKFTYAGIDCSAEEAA
# Chain of IR (h) (human) (P06213 1005-1310 limits assumed): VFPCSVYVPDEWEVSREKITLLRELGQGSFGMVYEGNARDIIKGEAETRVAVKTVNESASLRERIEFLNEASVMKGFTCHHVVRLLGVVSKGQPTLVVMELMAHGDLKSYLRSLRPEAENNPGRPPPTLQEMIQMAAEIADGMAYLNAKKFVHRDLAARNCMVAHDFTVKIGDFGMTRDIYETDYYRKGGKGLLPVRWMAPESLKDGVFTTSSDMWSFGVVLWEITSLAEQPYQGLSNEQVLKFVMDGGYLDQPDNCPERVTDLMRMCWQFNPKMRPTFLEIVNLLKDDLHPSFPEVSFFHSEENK
# Chain of RIPK2 (h) (human) (O43353 1-299 limits assumed): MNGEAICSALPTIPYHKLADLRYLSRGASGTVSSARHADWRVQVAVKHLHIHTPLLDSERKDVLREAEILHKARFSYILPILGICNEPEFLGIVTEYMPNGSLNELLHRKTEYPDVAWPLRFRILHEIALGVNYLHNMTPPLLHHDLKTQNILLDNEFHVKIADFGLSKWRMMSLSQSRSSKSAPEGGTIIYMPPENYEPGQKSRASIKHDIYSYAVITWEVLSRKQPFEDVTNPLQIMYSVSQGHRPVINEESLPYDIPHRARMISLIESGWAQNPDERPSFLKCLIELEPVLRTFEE
# Chain of CaMKIIβ (h) (human) (Q13554 whole entry): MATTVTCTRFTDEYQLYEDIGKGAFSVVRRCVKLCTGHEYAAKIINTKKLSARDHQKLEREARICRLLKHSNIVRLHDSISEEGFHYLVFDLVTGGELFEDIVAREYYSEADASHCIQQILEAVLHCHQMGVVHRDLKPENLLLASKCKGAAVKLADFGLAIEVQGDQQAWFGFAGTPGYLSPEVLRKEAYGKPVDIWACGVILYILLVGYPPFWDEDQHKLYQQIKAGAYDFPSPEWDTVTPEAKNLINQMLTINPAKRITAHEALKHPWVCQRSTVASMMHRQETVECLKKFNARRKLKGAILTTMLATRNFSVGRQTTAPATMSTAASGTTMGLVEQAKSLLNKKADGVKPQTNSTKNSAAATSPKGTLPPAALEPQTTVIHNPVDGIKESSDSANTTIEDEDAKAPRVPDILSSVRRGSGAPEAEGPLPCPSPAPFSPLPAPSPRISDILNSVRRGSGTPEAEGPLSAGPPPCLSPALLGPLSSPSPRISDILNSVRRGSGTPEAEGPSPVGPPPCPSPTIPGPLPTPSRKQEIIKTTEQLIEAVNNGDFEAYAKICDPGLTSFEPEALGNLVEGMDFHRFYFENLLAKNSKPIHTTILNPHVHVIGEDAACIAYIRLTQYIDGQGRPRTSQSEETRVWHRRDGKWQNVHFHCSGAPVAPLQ
substance,measurement,setting,value
MMI-0300 (peptide),% activity at 100 µM,EGFR(T790M) (h) (human),100%
same,% activity at 100 µM,SIK (h) (human),66%
same,% activity at 100 µM,MuSK (h) (human),93%
same,% activity at 100 µM,VRK2 (h) (human),161%
same,% activity at 100 µM,Flt1 (h) (human),69%
same,% activity at 100 µM,RIPK2 (h) (human),97%
same,% activity at 100 µM,DMPK (h) (human),59%
same,% activity at 100 µM,Tie2 (h) (human),26%
same,% activity at 100 µM,CaMKIIβ (h) (human),2%
same,% activity at 100 µM,TSSK2 (h) (human),98%
same,% activity at 100 µM,Lyn (h) (human),69%
same,% activity at 100 µM,EphA1 (h) (human),73%
same,% activity at 100 µM,KDR (h) (human),101%
same,% activity at 100 µM,IR (h) (human),96%
same,% activity at 100 µM,PKCθ (h) (human),88%
same,% activity at 100 µM,PASK (h) (human),29%
same,% activity at 100 µM,GRK7 (h) (human),122%
same,% activity at 100 µM,cSRC (h) (human),26%
same,% activity at 100 µM,SRPK1 (h) (human),90%
same,% activity at 100 µM,Abl (h) (human),69%
